Measurements from patent publication US8183340B2, “GLP-1 pegylated compounds” (Eli Lilly and Company, priority 2005, dated 2012).
Where no end group is shown, it is not given here. PEG = not defined here

Columns and labels:
Insulin = assay: Pharmacodynamic analysis: stepped intravenous glucose infusion, insulin levels by immunoassay; format: in vivo, male cynomolgus monkeys; conditions: for Insulin AUC, AUClast: stepped IV glucose infusion, mean
Procedure: A PEGylated GLP-1 compound of Formula I, wherein Xaa8 is Val; Xaa22 is Glu; Xaa33 is Ile; and Xaa46 is Cys-NH2 is administered by subcutaneous (SC) route at a dose of 0.01 mg/kg to male cynomolgus monkeys. A stepped intravenous glucose infusion is conducted immediately after SC administration of vehicle control (phosphate buffered saline) and 1, 5, and 7 days after SC administration of 0.01 mg/kg PEGylated GLP-1 analog. Stepped intravenous glucose infusion procedures are conducted in sedated monkeys after a 16-hour fast. Blood samples are drawn at 10 minutes prior to start of glucose infusion and immediately prior to start of glucose infusion to define baseline. A stepped infusion of glucose (20% dextrose) is then initiated at a rate of 10 mg/kg/min for 20 minutes followed by an infusion of 25 mg/kg/min for an additional 20 minutes. Blood samples are taken at 10-minute intervals throughout the infusion period. Insulin levels are determined by immunoassay. […] Representative data are shown below in Table 3.

[1] = Pharmacokinetic analysis after IV or SC administration to male SD rats (plasma, N-terminal specific radioimmunoassay); format: in vivo; conditions: for AUC0-last / CL/F (total body clearance as a function of bioavailability) / Cmax (maximum observed plasma concentration) / Tmax (time of maximum observed plasma concentration) / t1/2 (elimination half-life): mean
Procedure: A PEGylated GLP-1 compound of Formula I, wherein Xaa8 is Val; Xaa22 is Glu; Xaa33 is Ile; and Xaa46 is Cys-NH2 is administered by intravenous (IV) or subcutaneous (SC) routes at a dose of 0.1 mg/kg to male SD rats. The animals (3 rats per group) are bled at various times between 0 and 192 hours after dosing. Plasma is collected from each sample and analyzed by N-terminal specific radioimmunoassay. Pharmacokinetic parameters are calculated using noncompartmental methods (WinNonlin Pro). By IV administration, the PEGylated GLP-1 analog has an elimination half-life of approximately 1.2 days while by SC administration the PEGylated GLP-1 analog has an elimination half-life of approximately 1.1 days. […] Prolonged elimination half-life, slow clearance and subcutaneous bioavailability (approximately 30%) are observed for the compound. Representative data are shown below in Table 1

human GLP-1 receptor = molecular target: T1, human GLP-1 receptor (Homo sapiens, UniProt P43220); assay: In vitro activity assay, CRE-Luciferase in HEK-293 cells stably expressing the human GLP-1 receptor; format: cell-based; conditions: 5 hours incubation
T1 construct: expressed in transfected cells
Procedure: “In vitro potency” as used herein, is the measure of the ability of a peptide to activate the GLP-1 receptor in a cell-based assay. In vitro potency is expressed as the “EC50” which is the effective concentration of compound that results in 50% activity in a single dose-response experiment. For the purposes of the present invention, in vitro potency is determined using a […] assay that employs HEK-293 cells that stably express the human GLP-1 receptor. These HEK-293 cells have stably integrated a DNA vector having a cAMP response element (CRE) driving expression of the luciferase gene. The interaction of a GLP-1 compound or a PEGylated GLP-1 compound with the receptor initiates a signal that results in activation of the cAMP response element and subsequent expression of luciferase. The EC50 values for the PEGylated GLP-1 compounds listed in Example 3 were determined using the luciferase assay described above. Relative in vitro potency values may be established by running Val8-GLP-1(7-37)OH or native GLP-1 as a control and assigning the control a reference value of 100%.
HEK-293 cells stably expressing the human GLP-1 receptor, using a CRE-Luciferase system, are seeded at 30,000 cells/well/80 μl low serum DMEM F12 medium into 96 well plates. […] Plates are placed in a Tri-lux luminometer and light output resulting from luciferase expression is calculated.

[2] = Pharmacokinetic analysis after SC administration to male cynomolgus monkeys (serum, N-terminal specific radioimmunoassay); format: in vivo; conditions: 0.01 mg/kg, mean
Procedure: A PEGylated GLP-1 compound of Formula I, wherein Xaa8 is Val; Xaa22 is Glu; Xaa33 is Ile; and Xaa46 is Cys-NH2 is administered by subcutaneous (SC) route at a dose of 0.01 mg/kg to male cynomolgus monkeys. The animals are bled at various times between 0 and 168 hours after dosing. Serum is collected from each sample and analyzed by N-terminal specific radioimmunoassay. Pharmacokinetic parameters are calculated using noncompartmental methods (WinNonlin Pro). Representative data are shown below in Table 2.

T1 sequence (P43220 24-463): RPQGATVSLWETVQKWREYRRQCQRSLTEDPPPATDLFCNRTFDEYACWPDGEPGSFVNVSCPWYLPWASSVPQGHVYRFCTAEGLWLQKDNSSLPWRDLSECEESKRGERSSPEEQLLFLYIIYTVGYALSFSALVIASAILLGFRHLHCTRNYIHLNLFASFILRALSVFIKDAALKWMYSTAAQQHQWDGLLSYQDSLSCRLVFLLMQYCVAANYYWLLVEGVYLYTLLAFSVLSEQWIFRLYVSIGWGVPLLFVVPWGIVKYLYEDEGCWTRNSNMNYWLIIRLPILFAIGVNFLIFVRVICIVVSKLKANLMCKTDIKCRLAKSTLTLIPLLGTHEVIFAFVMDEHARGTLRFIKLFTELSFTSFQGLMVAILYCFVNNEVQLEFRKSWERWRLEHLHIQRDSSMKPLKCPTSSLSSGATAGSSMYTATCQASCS

PEGylated GLP-1 compound of Formula I, wherein Xaa8 is Val; Xaa22 is Glu; Xaa33 is Ile; and Xaa46 is Cys-NH2: Formula I (SEQ ID NO: 1) peptide, one PEG molecule covalently attached to Cys45 and one to Cys46-NH2 (HVEGTFTSDVSSYLEEQAAKEFIAWLIKGGPSSGAPPPC(PEG)C(PEG)-NH2; reading uncertain)
Insulin AUC, AUClast (Insulin; Day 1 after SC 0.01 mg/kg): 30862 pM·min
Insulin AUC, AUClast (Insulin; Day 5 after SC 0.01 mg/kg): 27203 pM·min
Insulin AUC, AUClast (Insulin; Day 7 after SC 0.01 mg/kg): 28542 pM·min
duration of insulinotropic activity (Insulin; single SC injection of 0.01 mg/kg, relative to placebo, p<0.0001): at least 7 days
adverse clinical observations ([1]; IV or SC administration of 0.1 mg/kg): No adverse clinical observations
elimination half-life ([1]; IV, 0.1 mg/kg): approximately 1.2 days
AUC0-last ([1]; IV, 0.1 mg/kg): 52292 ng·h/mL
CL/F (total body clearance as a function of bioavailability) ([1]; IV, 0.1 mg/kg): 1.9 mL/h/kg
Cmax (maximum observed plasma concentration) ([1]; IV, 0.1 mg/kg): 2020 ng/mL
Tmax (time of maximum observed plasma concentration) ([1]; IV, 0.1 mg/kg): 0.08 h
t1/2 (elimination half-life) ([1]; IV, 0.1 mg/kg): 25.8 h
elimination half-life ([1]; SC, 0.1 mg/kg): approximately 1.1 days
subcutaneous bioavailability ([1]; SC, 0.1 mg/kg): approximately 30%
AUC0-last ([1]; SC, 0.1 mg/kg): 15423 ng·h/mL
CL/F (total body clearance as a function of bioavailability) ([1]; SC, 0.1 mg/kg): 6.5 mL/h/kg
Cmax (maximum observed plasma concentration) ([1]; SC, 0.1 mg/kg): 191 ng/mL
Tmax (time of maximum observed plasma concentration) ([1]; SC, 0.1 mg/kg): 24.0 h
t1/2 (elimination half-life) ([1]; SC, 0.1 mg/kg): 28.3 h
EC50 (human GLP-1 receptor): 360 ± 40 pM
AUC0-last [2]: 7464.78 ng·h/mL
CL/F (total body clearance as a function of bioavailability) [2]: 1.06 mL/h/kg
Cmax (maximum observed serum concentration) [2]: 69.49 ng/mL
Tmax (time of maximum observed serum concentration) [2]: 48 h
t1/2 (elimination half-life estimate) [2]: 75.69 h

PEGylated GLP-1 compound of Formula I, wherein Xaa8 is Val; Xaa22 is Glu; Xaa33 is Ile; and Xaa46 is Cys: Formula I (SEQ ID NO: 1) peptide, one PEG molecule covalently attached to Cys45 and one to Cys46 (HVEGTFTSDVSSYLEEQAAKEFIAWLIKGGPSSGAPPPC(PEG)C(PEG); reading uncertain)
EC50 (human GLP-1 receptor): 220 ± 30 pM
